Data taken from patent US20230374526A1, “FORSKOLIN-INDUCIBLE PROMOTERS AND HYPOXIA-INDUCIBLE PROMOTERS” (ASKLEPIOS BIOPHARMACEUTICAL, INC., priority 2020, published 2023).

System: HEK293 cells
Experiment: Luciferase expression from new HRE3 hypoxia-inducible promoter designs, normoxia vs 24 h hypoxia
Type: cell-based, human
Conditions: HEK293, N=3
Description: Promoters were designed using HRE3 (SEQ ID NO: 9) described above. The promoters were designed around a base enhancer element: • […]gataa[…] GTATGtgcgt[…]gataaACCTTGAGTACGTGCGT CTCTGCACGTATGtgcgt[…]gataaACCTTGAGT […] (SEQ ID NO: 139) • HRE3 is in capital letters
This enhancer was operably linked with the following minimal promoters, with a 5 bp spacer between the enhancer and the minimal promoter: • YB-Tata (HYPN) • Short CMV (HYBNC) • CMV53 (HYBNC53) • MinTK (HYBNMinTK) • 30 MLP (HYBNMLP) • SV40 (HYBNSV) • pJB42 (HYBNpJB42)
This enhancer was also operably liked with another minimal promoter named TATA-m6A (HYBNTATAm6a): • […]aagcttggactaaagcggacttgtctcgag (SEQ ID NO: 101)
These new designs were transfected in HEK293 cells as described above and the results of their expression in hypoxia and normoxia are shown in FIG. 15.

Molecule	Luciferase activity in normoxia	Luciferase expression after 24 hours in hypoxia (vs normoxia)
HYBN-YB: hypoxia-inducible promoter, SEQ ID NO: 140; 6 HRE3 elements spaced by 5 bp spacers, YB-TATA (nucleic acid, Synp-HYPN, 6 HRE3 elements spaced by 5 bp spacers, YB-TATA) DNA: AATAAAATATCTTTATTTTCATTACATCTGTGTGTTGGTTTTTTGTGTGACCTTGAGTACGTGCGTCTCTGCACGTATGGATAAACCTTGAGTACGTGCGTCTCTGCACGTATGTGCGTACCTTGAGTACGTGCGTCTCTGCACGTATGGATAAACCTTGAGTACGTGCGTCTCTGCACGTATGTGCGTACCTTGAGTACGTGCGTCTCTGCACGTATGGATAAACCTTGAGTACGTGCGTCTCTGCACGTATGTCTAGAGGGTATATAATGGGGGCCA	almost no luciferase activity	induced
HYBN-MLP: hypoxia-inducible promoter, SEQ ID NO: 144; 6 HRE3 elements, MLP (nucleic acid, Synp- HYBNMLP, 6 HRE3 elements, MLP) DNA: AATAAAATATCTTTATTTTCATTACATCTGTGTGTTGGTTTTTTGTGTGACCTTGAGTACGTGCGTCTCTGCACGTATGGATAAACCTTGAGTACGTGCGTCTCTGCACGTATGTGCGTACCTTGAGTACGTGCGTCTCTGCACGTATGGATAAACCTTGAGTACGTGCGTCTCTGCACGTATGTGCGTACCTTGAGTACGTGCGTCTCTGCACGTATGGATAAACCTTGAGTACGTGCGTCTCTGCACGTATGGGGGGGCTATAAAAGGGGGTGGGGGCGTTCGTCCTCACTCT	almost no luciferase activity	induced
HYBN-TATAm6a: hypoxia-inducible promoter, SEQ ID NO: 147; 6 HRE3 elements, TATAm6a (nucleic acid, Synp-HYBNTATAm6a, 6 HRE3 elements, TATAm6a) DNA: AATAAAATATCTTTATTTTCATTACATCTGTGTGTTGGTTTTTTGTGTGACCTTGAGTACGTGCGTCTCTGCACGTATGGATAAACCTTGAGTACGTGCGTCTCTGCACGTATGTGCGTACCTTGAGTACGTGCGTCTCTGCACGTATGGATAAACCTTGAGTACGTGCGTCTCTGCACGTATGTGCGTACCTTGAGTACGTGCGTCTCTGCACGTATGGATAAACCTTGAGTACGTGCGTCTCTGCACGTATGTATAAAAGGCAGAGCTCGTTTAGTGAACCGAAGCTTGGACTAAAGCGGACTTGTCTCGAG	almost no luciferase activity	induced
HYBN-minTk: hypoxia-inducible promoter, SEQ ID NO: 143; 6 HRE3 elements, MinTK (nucleic acid, Synp-HYBNMinTK, 6 HRE3 elements, MinTK) DNA: AATAAAATATCTTTATTTTCATTACATCTGTGTGTTGGTTTTTTGTGTGACCTTGAGTACGTGCGTCTCTGCACGTATGGATAAACCTTGAGTACGTGCGTCTCTGCACGTATGTGCGTACCTTGAGTACGTGCGTCTCTGCACGTATGGATAAACCTTGAGTACGTGCGTCTCTGCACGTATGTGCGTACCTTGAGTACGTGCGTCTCTGCACGTATGGATAAACCTTGAGTACGTGCGTCTCTGCACGTATGTTCGCATATTAAGGTGACGCGTGTGGCCTCGAACACCGAGCGACCCTGCAGCGACCCGCTTAA	almost no luciferase activity	induced
HYBN-C: hypoxia-inducible promoter, SEQ ID NO: 141; 6 HRE3 elements, CMV-MP short (nucleic acid, Synp-HYBNC, 6 HRE3 elements, CMV-MP short) DNA: AATAAAATATCTTTATTTTCATTACATCTGTGTGTTGGTTTTTTGTGTGACCTTGAGTACGTGCGTCTCTGCACGTATGGATAAACCTTGAGTACGTGCGTCTCTGCACGTATGTGCGTACCTTGAGTACGTGCGTCTCTGCACGTATGGATAAACCTTGAGTACGTGCGTCTCTGCACGTATGTGCGTACCTTGAGTACGTGCGTCTCTGCACGTATGGATAAACCTTGAGTACGTGCGTCTCTGCACGTATGGCGATTAATCCATATGCGTAGGCGTGTACGGTGGGAGGTCTATATAAGCAGAGCT	almost no luciferase activity	induced
HYBN-SV: hypoxia-inducible promoter, SEQ ID NO: 145; 6 HRE3 elements, SV40 (nucleic acid, Synp-HYBNSV, 6 HRE3 elements, SV40) DNA: AATAAAATATCTTTATTTTCATTACATCTGTGTGTTGGTTTTTTGTGTGACCTTGAGTACGTGCGTCTCTGCACGTATGGATAAACCTTGAGTACGTGCGTCTCTGCACGTATGTGCGTACCTTGAGTACGTGCGTCTCTGCACGTATGGATAAACCTTGAGTACGTGCGTCTCTGCACGTATGTGCGTACCTTGAGTACGTGCGTCTCTGCACGTATGGATAAACCTTGAGTACGTGCGTCTCTGCACGTATGTGCATCTCAATTAGTCAGCAACCATAGTCCCGCCCCTAACTCCGCCCATCCCGCCCCTAACTCCGCCCAGTTCCGCCCATTCTCCGCCCCATCGCTGACTAATTTTTTTTATTTATGCAGAGGCCGAGGCCGCCTCGGCCTCTGAGCTATTCCAGAAGTAGTGAGGAGGCTTTTTTGGAGGCCTAGGCTTTTGCAAAAAGCTT	almost no luciferase activity	induced
HYBN-C53: hypoxia-inducible promoter, SEQ ID NO: 142; 6 HRE3 elements, CMV53 (nucleic acid, Synp-HYBNC53, 6 HRE3 elements, CMV53) DNA: AATAAAATATCTTTATTTTCATTACATCTGTGTGTTGGTTTTTTGTGTGACCTTGAGTACGTGCGTCTCTGCACGTATGGATAAACCTTGAGTACGTGCGTCTCTGCACGTATGTGCGTACCTTGAGTACGTGCGTCTCTGCACGTATGGATAAACCTTGAGTACGTGCGTCTCTGCACGTATGTGCGTACCTTGAGTACGTGCGTCTCTGCACGTATGGATAAACCTTGAGTACGTGCGTCTCTGCACGTATGCAACAAAATGTCGTAACAAGGGCGGTAGGCGTGTACGGTGGGAGGTCTATATAAGCAGAGCTCGTTTAGTGAACCG	almost no luciferase activity	induced
HYBN-pJB42: hypoxia-inducible promoter, SEQ ID NO: 146; 6 HRE3 elements, pJB42 (nucleic acid, Synp-HYBNpJB42, 6 HRE3 elements, pJB42) DNA: AATAAAATATCTTTATTTTCATTACATCTGTGTGTTGGTTTTTTGTGTGACCTTGAGTACGTGCGTCTCTGCACGTATGGATAAACCTTGAGTACGTGCGTCTCTGCACGTATGTGCGTACCTTGAGTACGTGCGTCTCTGCACGTATGGATAAACCTTGAGTACGTGCGTCTCTGCACGTATGTGCGTACCTTGAGTACGTGCGTCTCTGCACGTATGGATAAACCTTGAGTACGTGCGTCTCTGCACGTATGCTGACAAATTCAGTATAAAAGCTTGGGGCTGGGGCCGAGCACTGGGGACTTTGAGGGTGGCCAGGCCAGCGTAGGAGGCCAGCGTAGGATCCTGCTGGGAGCGGGGAACTGAGGGAAGCGACGCCGAGAAAGCAGGCGTACCACGGAGGGAGAGAAAAGCTCCGGAAGCCCAGCAGCG	almost no luciferase activity	induced
